Values of other authors as cited in publication PMC4569521 (Journal of molecular biology, 2015).

Target: ClpXP (Escherichia coli, UniProt P0A6G7+P0A6H1)
Details: MuA monomers; ref [23]

Sequence of ClpXP (P0A6H1 whole entry): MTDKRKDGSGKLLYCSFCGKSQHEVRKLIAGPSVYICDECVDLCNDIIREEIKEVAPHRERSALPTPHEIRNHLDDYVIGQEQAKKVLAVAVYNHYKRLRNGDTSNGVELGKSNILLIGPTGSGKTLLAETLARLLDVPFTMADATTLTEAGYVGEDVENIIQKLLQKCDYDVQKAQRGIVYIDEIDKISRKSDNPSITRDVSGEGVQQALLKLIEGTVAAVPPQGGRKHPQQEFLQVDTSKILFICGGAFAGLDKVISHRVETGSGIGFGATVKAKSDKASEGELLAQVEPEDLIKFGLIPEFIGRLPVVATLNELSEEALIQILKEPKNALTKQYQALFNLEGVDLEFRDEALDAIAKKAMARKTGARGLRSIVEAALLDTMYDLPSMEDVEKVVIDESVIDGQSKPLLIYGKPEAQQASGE
Sequence of ClpXP (P0A6G7 15-207 partner): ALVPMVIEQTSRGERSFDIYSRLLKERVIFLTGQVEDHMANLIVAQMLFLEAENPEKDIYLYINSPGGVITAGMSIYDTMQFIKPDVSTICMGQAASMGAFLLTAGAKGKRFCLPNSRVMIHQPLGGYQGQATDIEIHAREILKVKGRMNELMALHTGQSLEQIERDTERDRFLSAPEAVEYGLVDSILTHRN

## MuA monomers: Phage Mu transposase, ~75kDa, three domains; monomer in solution
  appKM for degradation by ClpXP: ~ 10 μM
